Experimental findings from patent US20260092091A1 are described below.

The assay has as its target CXCR2 expressed on 300-19 pre-B cells. The assay can be described thus: cell-based or functional assay.

“human wild-type GCP-2 (granulocyte chemotactic protein 2, CXCL6), recombinant (from UniProt P80162 38-114) (ligand)” displayed a chemotaxis in Boyden chambers (Transwell), optimal concentration of 50 nM and a transendothelial migration in Boyden chambers (EA.hy 926 monolayer), optimal concentration of 50 nM.
